Experimental data published in the array DNA melting data of Ke et al..

assay: melting temperature; melt of duplexes; conditions: sodium 0.0675 M; strand 1 µM

Compared with “CGACGTGCGGGATGTGCTG+CAGCACATGTAGCACGTCG ((((((((...((((((((+))))))))...))))))))”, “CGACGTGCGGGATGTGCTG+CAGCACATGTCGCACGTCG (((((((((..((((((((+))))))))..)))))))))” is higher in Tm: 53.7 °C for the first, 57.8 °C for the second.

Compared with “CGACGTGCGGGATGTGCTG+CAGCACATTACGCACGTCG (((((((((..((((((((+))))))))..)))))))))”, “CGACGTGCGGGATGTGCTG+CAGCACATTCAGCACGTCG ((((((((.(.((((((((+)))))))).).))))))))” is lower in Tm: 58 °C for the first, 56.4 °C for the second.

Compared with “CGACGTGCGGGATGTGCTG+CAGCACATTGAGCACGTCG ((((((((...((((((((+))))))))...))))))))”, “CGACGTGCGGGATGTGCTG+CAGCACATTGTGCACGTCG ((((((((...((((((((+))))))))...))))))))” is lower in Tm: 55.3 °C for the first, 49.4 °C for the second.

Going from “CGACGTGCGGGATGTGCTG+CAGCACATTTAGCACGTCG ((((((((...((((((((+))))))))...))))))))” to “CGACGTGCGGTATGTGCTG+CAGCACATAAAGCACGTCG ((((((((..(((((((((+)))))))))..))))))))”, the Tm rises from 53.4 °C to 56.9 °C.

Compared with “CGACGTGCGGTATGTGCTG+CAGCACATAACGCACGTCG (((((((((.(((((((((+))))))))).)))))))))”, “CGACGTGCGGTATGTGCTG+CAGCACATAATGCACGTCG ((((((((..(((((((((+)))))))))..))))))))” is lower in Tm: 61.4 °C for the first, 54.6 °C for the second.

Compared with “CGACGTGCGGTATGTGCTG+CAGCACATAGTGCACGTCG ((((((((..(((((((((+)))))))))..))))))))”, “CGACGTGCGGTATGTGCTG+CAGCACATATTGCACGTCG ((((((((..(((((((((+)))))))))..))))))))” is higher in Tm: 53 °C for the first, 55 °C for the second.

First: CGACGTGCGGTATGTGCTG+CAGCACATCAAGCACGTCG ((((((((...((((((((+))))))))...))))))))
Second: CGACGTGCGGTATGTGCTG+CAGCACATCCAGCACGTCG ((((((((.(.((((((((+)))))))).).))))))))
The Tm of the first is lower: 54 °C for the first, 55.1 °C for the second.

Compared with “CGACGTGCGGTATGTGCTG+CAGCACATCGAGCACGTCG ((((((((...((((((((+))))))))...))))))))”, “CGACGTGCGGTATGTGCTG+CAGCACATCTTGCACGTCG ((((((((...((((((((+))))))))...))))))))” is lower in Tm: 54 °C for the first, 50.7 °C for the second.

First: CGACGTGCGGTATGTGCTG+CAGCACATGACGCACGTCG (((((((((..((((((((+))))))))..)))))))))
Second: CGACGTGCGGTATGTGCTG+CAGCACATGATGCACGTCG ((((((((...((((((((+))))))))...))))))))
The Tm of the first is higher: 56.6 °C for the first, 52.2 °C for the second.

Going from “CGACGTGCGGTATGTGCTG+CAGCACATGCTGCACGTCG ((((((((.(.((((((((+)))))))).).))))))))” to “CGACGTGCGGTATGTGCTG+CAGCACATGGGGCACGTCG ((((((((...((((((((+))))))))...))))))))”, the Tm falls from 56.1 °C to 51.7 °C.

Compared with “CGACGTGCGGTATGTGCTG+CAGCACATTCCGCACGTCG ((((((((((.((((((((+)))))))).))))))))))”, “CGACGTGCGGTATGTGCTG+CAGCACATTGCGCACGTCG (((((((((..((((((((+))))))))..)))))))))” is lower in Tm: 60 °C for the first, 55.4 °C for the second.

Compared with “CGACGTGCGGTATGTGCTG+CAGCACATTGGGCACGTCG ((((((((...((((((((+))))))))...))))))))”, “CGACGTGCGGTATGTGCTG+CAGCACATTGTGCACGTCG ((((((((...((((((((+))))))))...))))))))” is lower in Tm: 49.8 °C for the first, 47.2 °C for the second.

Compared with “CGACGTGCGGTATGTGCTG+CAGCACATTTGGCACGTCG ((((((((...((((((((+))))))))...))))))))”, “CGACGTGCGTAATGTGCTG+CAGCACATACGGCACGTCG ((((((((...((((((((+))))))))...))))))))” is higher in Tm: 49.9 °C for the first, 52.6 °C for the second.

Compared with “CGACGTGCGTAATGTGCTG+CAGCACATAGAGCACGTCG ((((((((...((((((((+))))))))...))))))))”, “CGACGTGCGTAATGTGCTG+CAGCACATATAGCACGTCG ((((((((...((((((((+))))))))...))))))))” is higher in Tm: 54.4 °C for the first, 54.5 °C for the second.

Compared with “CGACGTGCGTAATGTGCTG+CAGCACATATGGCACGTCG ((((((((...((((((((+))))))))...))))))))”, “CGACGTGCGTAATGTGCTG+CAGCACATCAAGCACGTCG ((((((((.(.((((((((+)))))))).).))))))))” is higher in Tm: 51 °C for the first, 53.4 °C for the second.

Compared with “CGACGTGCGTAATGTGCTG+CAGCACATCAGGCACGTCG ((((((((.(.((((((((+)))))))).).))))))))”, “CGACGTGCGTAATGTGCTG+CAGCACATCATGCACGTCG ((((((((.(.((((((((+)))))))).).))))))))” is higher in Tm: 51.5 °C for the first, 52.3 °C for the second.

Compared with “CGACGTGCGTAATGTGCTG+CAGCACATCCTGCACGTCG ((((((((...((((((((+))))))))...))))))))”, “CGACGTGCGTAATGTGCTG+CAGCACATCGGGCACGTCG ((((((((...((((((((+))))))))...))))))))” is lower in Tm: 49.7 °C for the first, 49.4 °C for the second.

First: CGACGTGCGTAATGTGCTG+CAGCACATCTAGCACGTCG ((((((((...((((((((+))))))))...))))))))
Second: CGACGTGCGTAATGTGCTG+CAGCACATGCCGCACGTCG (((((((((..((((((((+))))))))..)))))))))
The Tm of the first is lower: 54.7 °C for the first, 54.9 °C for the second.

First: CGACGTGCGTAATGTGCTG+CAGCACATGGCGCACGTCG (((((((((..((((((((+))))))))..)))))))))
Second: CGACGTGCGTAATGTGCTG+CAGCACATGTAGCACGTCG ((((((((...((((((((+))))))))...))))))))
The Tm of the first is lower: 57.2 °C for the first, 58.1 °C for the second.

Going from “CGACGTGCGTAATGTGCTG+CAGCACATTAAGCACGTCG ((((((((.((((((((((+)))))))))).))))))))” to “CGACGTGCGTAATGTGCTG+CAGCACATTACGCACGTCG (((((((((((((((((((+)))))))))))))))))))”, the Tm rises from 56.9 °C to 63.9 °C.

Going from “CGACGTGCGTAATGTGCTG+CAGCACATTCCGCACGTCG (((((((((.(((((((((+))))))))).)))))))))” to “CGACGTGCGTAATGTGCTG+CAGCACATTCGGCACGTCG ((((((((..(((((((((+)))))))))..))))))))”, the Tm falls from 57.7 °C to 53.1 °C.

Compared with “CGACGTGCGTCATGTGCTG+CAGCACATAACGCACGTCG ((((((((((.((((((((+)))))))).))))))))))”, “CGACGTGCGTCATGTGCTG+CAGCACATACAGCACGTCG ((((((((...((((((((+))))))))...))))))))” is lower in Tm: 58 °C for the first, 53 °C for the second.

First: CGACGTGCGTCATGTGCTG+CAGCACATACTGCACGTCG ((((((((...((((((((+))))))))...))))))))
Second: CGACGTGCGTCATGTGCTG+CAGCACATAGCGCACGTCG (((((((((..((((((((+))))))))..)))))))))
The Tm of the first is lower: 50.9 °C for the first, 55.1 °C for the second.

Compared with “CGACGTGCGTCATGTGCTG+CAGCACATATTGCACGTCG ((((((((...((((((((+))))))))...))))))))”, “CGACGTGCGTCATGTGCTG+CAGCACATCCAGCACGTCG ((((((((...((((((((+))))))))...))))))))” is higher in Tm: 49.2 °C for the first, 50.7 °C for the second.

First: CGACGTGCGTCATGTGCTG+CAGCACATCGAGCACGTCG ((((((((...((((((((+))))))))...))))))))
Second: CGACGTGCGTCATGTGCTG+CAGCACATCGCGCACGTCG (((((((((..((((((((+))))))))..)))))))))
The Tm of the first is lower: 52.3 °C for the first, 54.2 °C for the second.

Compared with “CGACGTGCGTCATGTGCTG+CAGCACATCTAGCACGTCG ((((((((...((((((((+))))))))...))))))))”, “CGACGTGCGTCATGTGCTG+CAGCACATCTCGCACGTCG (((((((((..((((((((+))))))))..)))))))))” is higher in Tm: 51.5 °C for the first, 52.4 °C for the second.
